Here are results for 1 molecule from patent JP2006246896A.

The assay deals with ヒトEGFレセプター(細胞表面に発現) (human) (UniProt P00533). In words: cell ELISA on glutaraldehyde-fixed A431 cells, compared with chimeric C225. For orientation: In an ELISA, binding on a coated surface is turned into a signal by an enzyme label.

B1: 再形成ヒトH225抗体(225RKA/225RHA) (antibody, V domains shown)
VH: EVQLVESGGGLVQPGGSLRLSCAVSGFSLTNYGVHWVRQATGKGLEWLGVIWSGGNTDYNTPFTSRLTISKENAKNSLYLQMNSLRAGDTAVYYCARALTYYDYEFAYWGQGTM
VL: EIVLTQSPATLSLSPGERATLSCRASQSIGTNIHWYQQRPGQAPRLLIKYASESISGIPARFSGSGSGTDFTLTISSLEPEDFAVYYCQQNNNWPTTFGGG
Molecule B1 registered a 相対親和力 (relative to chimeric C225) of 65%.
